Test results taken from IntAct's records for PubMed 17891176.

B1: DNA-binding protein inhibitor ID-1 (Homo sapiens), P41134 (parent)
chain: MKVASGSTATAAAGPSCALKAGKTASGAGEVVRCLSEQSVAISRCAGGAGARLPALLDEQQVNVLLYDMNGCYSRLKELVPTLPQNRKVSKVEILQHVIDYIRDLQLELNSESEVGTPGGRGLPVRAPLSTLNGEISALTAEAACVPADDRILCR

Variants of: B1
Conditions: with psmd4_human PSMD4, P55036
Sequence of psmd4_human PSMD4, P55036 (P55036 whole entry): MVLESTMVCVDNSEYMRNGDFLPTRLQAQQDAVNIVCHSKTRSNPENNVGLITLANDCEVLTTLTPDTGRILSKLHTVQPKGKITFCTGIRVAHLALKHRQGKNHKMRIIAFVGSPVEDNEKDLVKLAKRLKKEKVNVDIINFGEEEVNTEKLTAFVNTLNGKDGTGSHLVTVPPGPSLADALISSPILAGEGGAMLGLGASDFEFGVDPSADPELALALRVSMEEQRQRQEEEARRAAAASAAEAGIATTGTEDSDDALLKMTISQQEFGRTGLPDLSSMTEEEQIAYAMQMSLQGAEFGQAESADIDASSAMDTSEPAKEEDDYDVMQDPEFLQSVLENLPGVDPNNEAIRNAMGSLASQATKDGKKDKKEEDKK

Variant | effect of a mutation on the interaction
V98G | decreasing interaction
